{"source": "patent US20240228595A1", "key": {"[1]": {"target": "SARS-COV-2 Omicron BA.1 spike on HIV-1 based pseudovirus (Example 3) (SARS-CoV-2 Omicron BA.1) (UniProt P0DTC2)", "test": "cell-based or functional assay"}, "[2]": {"target": "SARS-COV-2 Omicron BA.2 spike on HIV-1 based pseudovirus (SARS-CoV-2 Omicron BA.2) (UniProt P0DTC2)", "test": "cell-based or functional assay"}, "[3]": {"target": "SARS-COV-2 Delta RBD (Sino Biological Cat. No. 40592-V08H90) (SARS-CoV-2 Delta) (UniProt P0DTC2)", "test": "ELISA, SARS-CoV-2-Delta RBD coated, antibody titrated"}, "[4]": {"target": "SARS-COV-2 Omicron RBD recombinant protein (Sino Biological 40592-V08H121) (SARS-CoV-2 Omicron BA.1) (UniProt P0DTC2)", "test": "ELISA, SARS-CoV-2-Omicron BA.1 RBD coated, antibody titrated"}, "[5]": {"target": "SARS-COV-2 Omicron BA.2 RBD (AcroBiosystems Cat. No. SPD-C522g) (SARS-CoV-2 Omicron BA.2) (UniProt P0DTC2)", "test": "ELISA, SARS-CoV-2-Omicron BA.2 RBD coated, antibody titrated"}}}
{"substance": "S309 (Sotrovimab) (antibody)", "values": [{"measurement": "pseudovirus neutralization, IC50", "setting": "[1]", "result": 446, "unit": "ng/mL"}, {"measurement": "pseudovirus neutralization, IC50", "setting": "[2]", "result": 2750, "unit": "ng/mL"}, {"measurement": "pseudovirus neutralization, fold drop of activity against Omicron BA.2", "setting": "[2]", "result": 30, "unit": "fold"}, {"measurement": "EC50", "setting": "[3]", "result": 2, "unit": "ng/mL"}, {"measurement": "EC50", "setting": "[4]", "result": 6, "unit": "ng/mL"}, {"measurement": "EC50", "setting": "[5]", "result": 4, "unit": "ng/mL"}]}
